Results on three molecules are retold here after US20040023341A1 (ZymoGenetics, published 2004).

Test [1] addresses IL-TIF protein (SEQ ID NO:3) (human) (UniProt Q9GZX6). Kind of test: cell-based or functional assay.
Test [2] has as its target T1, CRF2-4/zcytor11 heterodimeric receptor on BaF3/CRF2-4/zcytor11 cells (human, UniProt Q08334 20-325).
T1 sequence 1: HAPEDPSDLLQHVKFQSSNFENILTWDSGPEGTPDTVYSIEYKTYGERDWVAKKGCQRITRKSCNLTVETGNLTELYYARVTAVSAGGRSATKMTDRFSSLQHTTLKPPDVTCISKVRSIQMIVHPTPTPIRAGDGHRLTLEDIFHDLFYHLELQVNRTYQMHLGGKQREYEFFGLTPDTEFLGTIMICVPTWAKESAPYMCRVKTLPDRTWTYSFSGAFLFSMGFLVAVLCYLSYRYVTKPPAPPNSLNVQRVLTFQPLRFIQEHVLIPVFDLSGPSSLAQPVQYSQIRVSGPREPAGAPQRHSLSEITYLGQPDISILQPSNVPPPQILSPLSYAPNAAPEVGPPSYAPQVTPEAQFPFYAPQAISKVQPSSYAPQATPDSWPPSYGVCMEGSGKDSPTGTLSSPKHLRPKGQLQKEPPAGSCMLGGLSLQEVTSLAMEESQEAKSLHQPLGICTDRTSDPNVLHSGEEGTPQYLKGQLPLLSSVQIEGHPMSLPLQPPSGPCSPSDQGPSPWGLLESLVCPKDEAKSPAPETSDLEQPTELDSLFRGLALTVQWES
T1 sequence 2: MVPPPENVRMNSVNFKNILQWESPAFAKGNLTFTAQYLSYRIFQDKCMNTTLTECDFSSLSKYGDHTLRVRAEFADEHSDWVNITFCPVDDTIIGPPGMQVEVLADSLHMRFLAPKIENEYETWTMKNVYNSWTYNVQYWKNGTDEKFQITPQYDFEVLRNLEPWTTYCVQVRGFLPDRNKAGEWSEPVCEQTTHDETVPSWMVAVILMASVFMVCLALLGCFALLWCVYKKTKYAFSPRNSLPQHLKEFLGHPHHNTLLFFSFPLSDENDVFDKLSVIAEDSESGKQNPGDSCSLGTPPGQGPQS
Briefly: cell-based or functional assay.

“CRF2-4/zcytor11-Fc4 soluble heterodimer receptor (Fc fusion)”: in test [1], the concentration at which inhibition of IL-TIF-induced proliferation was barely detectable was 63 ng/mL, the concentration giving complete inhibition of IL-TIF-induced proliferation worked out at 8 µg/mL and the concentration giving partial inhibition of IL-TIF-induced proliferation is 0.125 to 4 µg/mL.

B1: IL-TIF protein (SEQ ID NO:3) (ligand)
chain: APISSHCRLDKSNFQQPYITNRTFMLAKEASLADNNTDVRLIGEKLFHGVSMSERCYLMKQVLNFTLEEVLFPQSDRFQPYMQEVVPFLARLSNRLSTCHIEGDDLHIQRNVQKLKDTVKKLGESGEIKAIGELDLLFMSLRNACI
On to B1, for which the “proliferation of BaF3/CRF2-4/zcytor11 cells (Alamar Blue) at 100 pg/ml IL-TIF” value in test [2] came out at 13 fold.

B2: IL-TIF-CEE polypeptide purified from BHK 570 cells (ligand)
chain: APISSHCRLDKSNFQQPYITNRTFMLAKEASLADNNTDVRLIGEKLFHGVSMSERCYLMKQVLNFTLEEVLFPQSDRFQPYMQEVVPFLARLSNRLSTCHIEGDDLHIQRNVQKLKDTVKKLGESGEIKAIGELDLLFMSLRNACIEYMPME
For B2, in test [2], the “proliferation of BaF3/CRF2-4/zcytor11 cells (Alamar Blue), fold induction at 0.06 ng/ml IL-TIF-CEE” value was 2 fold and the “proliferation of BaF3/CRF2-4/zcytor11 cells (Alamar Blue), fold over background at 50 ng/ml IL-TIF-CEE” value was about 15 fold.
